Test [1] has as its target PP2Ac C-terminal peptide pT304-meL309, ac-HVTRRpTPDYFL-CH3 (human). In words: ELISA, peptide coated at 2 µg/ml, supernatant 1:50.
Test [2] has as its target T1, PP4c peptides L307, meL307 (Homo sapiens, UniProt P60510).
T1 construct: carboxymethylated versus non-methylated PP2Ac, PP4c and PP6c C-terminal undecapeptides
In words: ELISA with PP4c C-terminal undecapeptides. Type of test: binding. Here is the method:
To further characterize the carboxymethyl-PP2Ac specificity of monoclonal antibody 7C10-C5 ELISAs were performed on carboxymethylated versus non-methylated PP2Ac, PP4c and PP6c C-terminal undecapeptides.
Specifically, flat-bottom Nunc-Immuno Medisorp 96-well ELISA plates (Thermo; 467320) were coated o/n at 4° C. with 50 μl of either a peptide of the sequence ac-HVTRRTPDYFL-OH (L309) (SEQ ID NO:18) at a concentration of 2 μg/ml in TBS (137 mM NaCl (AppliChem, #131659, 2.7 mM KCl (AppliChem, #131494), 24.8 mM Tris (AppliChem, #A1086), pH 7.4 with HCl), a peptide of the sequence ac-HVTRRTPDYFL-CH3 (meL309) (SEQ ID NO:18) 2 μg/ml in TBS, with a peptide of the sequence (ac-PSKKPVADYFL (L307) (SEQ ID NO:20) at a concentration of 2 μg/ml in TBS or with a peptide of the sequence ac-PSKKPVADYFL-CH3 (meL307) (SEQ ID NO:20) at a concentration of 2 μg/ml in TBS, with a peptide of the sequence ac-IPPRTTTPYFL (L305) (SEQ ID NO:22) at a concentration of 2 μg/ml in TBS or with a peptide of the sequence ac-IPPRTTTPYFL-CH3 (meL305) (SEQ ID NO:22) at a concentration of 2 μg/ml in TBS. […] Bound antibodies were detected colorimetrically by addition of 50 μl of 33 μg/ml […] (TMB) (Sigma, T2885) in 0.1 M sodium acetate pH 6.0 and 0.01% H2O2 (Sigma, H1009). […] The results from 560 nm read were subtracted from the 450 nm read.

B1: 7C10-C5 monoclonal antibody (antibody, V domains shown)
VH: DVQLQESGPGLVKPSQSLSLTCSVTGYSITSGYYWNWIRQFPGNKLEWMGYISYDGSNNYNPSLKNRISITRDTSKNQFFLKLNSVTTEDTATYYCAGRFAYWGQGTLVTVSA
VL: DVLMTQTPLSLPVSLGDQASISCRSSQSIVHSNGNTYLEWYLQKPGQSPKLLIYKVSNRFSGVPDRFSGSGSGTDFTLKINRVEAEDLGVYYCFQGSHVPWTFGGGTKLEIK
notes: Used as hybridoma culture supernatant (ELISA, Western blot, IHC) or at 50 µg/mL (SPR); also called 7C10 X63; clone 7C10-C5
For the molecule B1, the fold higher ELISA signal intensity than with the carboxymethylated peptide without phosphorylation (meL309) in test [1] came to 1.6 fold.

B2: 7C10-C5: α-carboxymethylation specific mouse monoclonal IgG1 antibody from single clone hybridoma 7C10-C5 (DSM ACC3350) (antibody)
heavy: MYRMQLLSCIALSLALVTNSDVQLQESGPGLVKPSQSLSLTCSVTGYSITSGYYWNWIRQFPGNKLEWMGYISYDGSNNYNPSLKNRISITRDTSKNQFFLKLNSVTTEDTATYYCAGRFAYWGQGTLVTVSAAKTTAPSVYPLAPVCGDTTGSSVTLGCLVKGYFPEPVTLTWNSGSLSSGVHTFPAVLQSDLYTLSSSVTVTSSTWPSQSITCNVAHPASSTKVDKKIEPRGPTIKPCPPCKCPAPNLLGGPSVFIFPPKIKDVLMISLSPIVTCVVVDVSEDDPDVQISWFVNNVEVHTAQTQTHREDYNSTLRVVSALPIQHQDWMSGKEFKCKVNNKDLPAPIERTISKPKGSVRAPQVYVLPPPEEEMTKKQVTLTCMVTDFMPEDIYVEWTNNGKTELNYKNTEPVLDSDGSYFMYSKLRVEKKNWVERNSYSCSVVHEGLHNHHTTKSFSRTPGK
light: MDMRVPAQLLGLLLLWLSGARCDVLMTQTPLSLPVSLGDQASISCRSSQSIVHSNGNTYLEWYLQKPGQSPKLLIYKVSNRFSGVPDRFSGSGSGTDFTLKINRVEAEDLGVYYCFQGSHVPWTFGGGTKLEIKADAAPTVSIFPPSSEQLTSGGASVVCFLNNFYPKDINVKWKIDGSERQNGVLNSWTDQDSKDSTYSMSSTLTLTKDEYERHNSYTCEATHKTSTSPIVKSFNRNEC
modifications: Amino acid sequence of the recombinant 7C10-C5 heavy chain; Amino acid sequence of the recombinant 7C10-C5 light chain
Take B2: the “carboxymethylated versus non-carboxymethylated PP4c peptide signal” value in test [2] is on record as “No significant difference”.

Source of the values: patent US20230121197A1, “ANTIBODIES SPECIFICALLY BINDING THE CARBOXYMETHYLATED CATALYTIC SUBUNIT OF PROTEIN PHOSPHATASE 2A” (Medizinische Universität Wien, priority 2020, published 2023).
